In patent publication US20100221798:

Target: octadecenoyl-ACP

B1: Synechococcus elongatus PCC7942 orf1594 protein (YP-400611; Synpcc7942-1594; acyl-ACP reductase) with C-terminal His-tag (protein)
chain: MFGLIGHLTSLEQARDVSRRMGYDEYADQGLEFWSSAPPQIVDEITVTSATGKVIHGRYIESCFLPEMLAARRFKTATRKVLNAMSHAQKHGIDISALGGFTSIIFENFDLASLRQVRDTTLEFERFTTGNTHTAYVICRQVEAAAKTLGIDITQATVAVVGATGDIGSAVCRWLDLKLGVGDLILTARNQERLDNLQAELGRGKILPLEAALPEADFIVWVASMPQGVVIDPATLKQPCVLIDGGYPKNLGSKVQGEGIYVLNGGVVEHCFDIDWQIMSAAEMARPERQMFACFAEAMLLEFEGWHTNFSWGRNQITIEKMEAIGEASVRHGFQPLALAI
For B1, the “Km for the reduction of octadecenoyl-ACP in the presence of 2 mM NADPH (in vitro reductase assay, aldehyde formed measured by GC/MS)” value was 7.8 ± 2 µM.
